From the supplement of paper PMC9170038

Tested on: K4 kissing-loop RNA reporter
Experiment: apparent KD of K4 kissing-loop reporter; higher = weaker reporter binding
Conditions: Eterna round: R107
Experimental: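 RNA-MaP round R107: designed RNA switches with theophylline, tryptophan, arginine or FMN aptamers are transcribed on-chip within common flanks. They are titrated with a labelled K4 kissing-loop RNA reporter in RNA-MaP buffer (100 mM Tris pH 7.5, 80 mM KCl, 4 mM MgCl2), without ligand or with the indicated ligand. Median apparent KD per design.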

[1] = input ligand: theophylline 20 uM
[2] = input ligand: tryptophan 2.4 mM
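Also: bound reporter read as fluorescence of individual clusters on recovered sequencing chips by microscopy, with normalized cluster intensities fitted with a binding model.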

Sequence | apparent KD of K4 kissing-loop reporter (input ligand: FMN 200 uM) | apparent KD of K4 kissing-loop reporter (input ligand: arginine 13.2 mM) | apparent KD of K4 kissing-loop reporter (input ligand: none) | apparent KD of K4 kissing-loop reporter [1] | apparent KD of K4 kissing-loop reporter [2]
AAGCAGUCACUCGAAACCAUCGAAGAUGGGCGAGGACCGGUACGGCCGCCACUCGGAGUGAUGUUCCGAAGACUGCAAAAUAAAA | 377 nM | 348 nM | 592 nM | 443 nM | 354 nM
GGUAGCAUGGCGGCCGCCACUUUUACUGGAUCGGAAACGAUCCAGUAUUGUGUAGUGAUGUUACAAAGGACCGGGCCAUGCUACC | 201 nM | 188 nM | 180 nM | 189 nM | 167 nM
AGGUACAAAAGUACCGCUAGAUCCACGGAAGGAGCGCCCGAAAGGGCAGGUAGGUCGCCGGGCAGUGAUGUUGCCGGAUCUAGCA [Omei KL Arginine A SS A v6] | 162 nM | 163 nM | 156 nM | 181 nM | 139 nM
CGAGUCGGUUCAGAUACCAGCCAAUUAGAGUCGAGUGAUGUUCGACAAUGAACGUCCAAAGGCCCUUGGCAGCUGGAUUGGGAAC [Same State Theophylline B GF 20] | 157 nM | 61.1 nM | 104 nM | 112 nM | 171 nM
AUUUUUUUGUCAGGAUAUUAGUGUGCGUUUGGUUUGUUAGUGAUGUUGAUAUUUGGUUUAUGUAUUUAAGAAGGGAUUUAGCGGU [dhbbtemullin] | 557 nM | 480 nM | 562 nM | 582 nM | 357 nM
ACAUUAGGCACGGCCGCCACUGGAUUAAGAUCUUAAGUAUUAAUUAACAUGAGUGAUGUUCAUGCCAGGACCGGGUGACUACCAU [KL-SSTryp-B11] | 275 nM | 222 nM | 261 nM | 267 nM | 252 nM
AGAUUCGACACGGCCGCCACUUCCAGUGGUCGGUGUCAUGGUGCACAUGAGUGAUGUUCAUGUGGAAGGACCGGGUGUUGAGUCU [KL-XTryp-B3 #analogue] | 111 nM | 91.4 nM | 103 nM | 108 nM | 165 nM
AAGGCACGGCUUCGGCCGUGCCAAAUAGAUACCAGCAUAAUAAUAUGCCCUUGGCAGCUAAAUAUAAAUUCAGUGAUGUUGGAUA [SS Theo A Tesla 2.2] | 573 nM | 412 nM | 604 nM | 649 nM | 546 nM
UGGAGUUGACGAAAAGUCAACUCCUGAGAUACCAGUGACGAAAGUCACCCUUGGCAGCUCACUGGCAGUGAUGUUGCUAUAUAAA [KL-SSTheo-A3] | 85.5 nM | 68.9 nM | 95.3 nM | 211 nM | 101 nM
AAAUUUAAUAUAUUUAAUUAAUUAAGUGAUACCAGACAUUAAUAAGUCCCUUGGCAGCACAAUGCAGUGAUGUUGCUUAUAAUAA [JR_SSTheophyA_Sub009] | 129 nM | 120 nM | 76.6 nM | 169 nM | 76.3 nM
AAAAUAAGCCAGUGAUGUUGGGAUCCAGAUACCAGCGACGAAAGUCGCCCUUGGCAGCUGUGGACGUACAAAAUAAGUACGUCCU | 924 nM | 706 nM | 1040 nM | 927 nM | 992 nM
GUUACGCAUGGAAGGAGCGCACUCCGAUUGGGCGACACAGUGAUGUUGUGGUUCGUUCGAAUGCAGGUAGGUCGCCAUGUGUAAC [Ex Arginine B K4 20] | 181 nM | 153 nM | 140 nM | 153 nM | 142 nM
UGAGGAGAGGGAAGGAGCGUGAAAGAGAAAGAAUAUAGUGAUGUUAUAUAGAAGAAAGAAUCACAGGUAGGUCGCCCGGAGGAGG [SSArgB.B] | 278 nM | 742 nM | 479 nM | 669 nM | 284 nM
UAACAGUCUACGGCCGCCACUGACAAUCGGCAAGCAACAUGUGGGUGCGUAGUGAUGUUACAUAUCAGGACCGGGUAAGACAAAU [theeternabot_sameState_KL_Trp_B_32] | 327 nM | 392 nM | 235 nM | 345 nM | 438 nM
ACUGGAAUUGUACUCCAGUGAUGUUGGAGGCAGGAUAUCCAGUAAAGGAGAAGGGCCAUCGCGCUAUUUAGCCGCAGGCGGCUAA [Atrilazaed] | 251 nM | 130 nM | 126 nM | 136 nM | 131 nM
GCCGUAGAUUGAAGGAGCGCUAGUCUACGAUGACACACAGUGAUGUUGUGCGUGAUUUCAUAGCAGGUAGGUCGCAAUCUACGGC | 230 nM | 195 nM | 214 nM | 186 nM | 183 nM
CGCGGCCCGCCGGAUACCAGUGACCCGCGGGAAACCGCGGGCCCAGAGUGAUGUUCGGGACACCCUUGGCAGCCGCCUGGGCGUG [#2 Same State - Theophylline B Attempt #1 (HarryS)] | 567 nM | 325 nM | 620 nM | 1000 nM | 424 nM
AUCGUUGUCUGAGGAUAUCGGUUAUCUGUAGUGAUGUUACAGUAUAUUGAUAUUAUAGUUUCUUUUCGAGAAGGCAGACUACGUA [JR_Nu_ExcFMNB_Sub021] | 74.1 nM | 61.3 nM | 68.9 nM | 65.4 nM | 66.4 nM
CGUUUAUAGCAGGAUACCAGUACCCAUUAAGUACGUUAAUAGUAGAGUGAUGUUCUAAAGUACCCUUGGCAGCUUCCCGUGACCC [ExTheophylB.X] | 103 nM | 164 nM | 124 nM | 176 nM | 94.1 nM
AAUUUAUAUUUAUUCUUUAAAUGUUCAGAAGGAGCGUGAAUUAUCACAGGUAGGUCGCUGAGCUAGUGAUGUUGGCUAUAUACUA [whbob_Ex_Arginine_A_2t124] | 167 nM | 219 nM | 202 nM | 217 nM | 138 nM
UACAUCGAGCAGAGUGAUGUUUUGUGCGAUACCAGCAAGUGCAAGUGCCCUUGGCAGCGCAAGCGGUUGUAUGUAGGACCGGACG [theeternabot_exclusion_KL_Theo_A_21] | 433 nM | 647 nM | 657 nM | 964 nM | 432 nM
